The target of the test is P1 adhesin (AgI/II, SpaP, PAc) A3VP1 polypeptide (UniProt P23504). Put plainly: ITC. As to conditions: pH 5; 25°C; 100 mM NaCl; pH 5: 10 mM MES; pH 6: 50 mM sodium phosphate.

In the case of “P1 adhesin (AgI/II, SpaP, PAc) C3 domain”, the KD is 35.2 ± 7.0 µM.

In general, KD refers to the equilibrium constant for the complex coming apart. A low value points to a tighter complex.

Source of the values: publication PMC7255924.
